Patent US8541373B2, “BChE albumin fusions for the treatment of cocaine abuse” (priority 2009, dated 2013)

System: cocaine
Experiment: Plasma cocaine, benzoylecgonine and ecgonine methyl ester (LC-MS) and cocaine PK after IV cocaine post-AlbuBChE
Assay type: in vivo, cynomolgus monkeys
Experimental: Blood was placed into K2EDTA blood collection tubes with esterase inhibitor diisopropylfluorophosphate (DFP). Tubes were inverted several times and placed on wet ice upon collection. Samples were centrifuged at 2-8° C. within 45 minutes of collection. The resultant plasma was recovered and a single 200 μL aliquot of plasma was placed into polypropylene tubes. Plasma samples were frozen over dry ice and stored at −75±15° C.
The following outline describes the LC-MS-based assay employed for the measurement of cocaine in plasma samples. Prior to MS analysis, plasma samples, calibration standards and controls were extracted using supported liquid extraction (SLE-ISOLUTE, Biotage). Twenty-five microliters of samples (25 μL) received 150 μl of 5% Ammonium hydroxide and 25 μl internal standard solution (Cocaine-d3). After mixing and transfer to SLE plate, samples were eluted with methylene chloride and evaporated to dryness. After resuspension in 50 μl of reconstitution solution—5% ACM in 10 mM ammonium acetate in water, 10 μl was injected onto Thermo Hypercarb column at 0.5 ml/min. Mobile phase was biphasic. Mass spectrophotometric detection was performed using Api 4000, APCI positive interface and Multiple Reaction Monitoring (MRM). Plasma concentrations of cocaine, benzoylecgonine and ecgonine methyl ester were determined using this assay.
When the data permits, pharmacokinetic parameter values for cocaine and its metabolites were determined using plasma concentration-times profiles for individual animals at all the study days of cocaine administration. […] Specifically the model for non-compartmental analysis with IV bolus input for cocaine and extravascular input for the metabolites.

[1] = 1 mg/kg IM, cocaine 1 mg/kg IV 96 hr post-AlbuBChE, 20 min after cocaine
[2] = 1 mg/kg IM, cocaine 1 mg/kg IV 96 hr post-AlbuBChE, 30 min after cocaine
[3] = 1 mg/kg IM, cocaine 1 mg/kg IV 96 hr post-AlbuBChE, 40 min after cocaine
[4] = 1 mg/kg IM, cocaine 1 mg/kg IV 96 hr post-AlbuBChE, 60 min after cocaine
[5] = 1 mg/kg IM, cocaine 1 mg/kg IV 120 hr post-AlbuBChE
[6] = 1 mg/kg IM, cocaine 1 mg/kg IV 120 hr post-AlbuBChE, 5 min after cocaine
[7] = 1 mg/kg IM, cocaine 1 mg/kg IV 120 hr post-AlbuBChE, 10 min after cocaine
[8] = 1 mg/kg IM, cocaine 1 mg/kg IV 120 hr post-AlbuBChE, 15 min after cocaine
[9] = 1 mg/kg IM, cocaine 1 mg/kg IV 120 hr post-AlbuBChE, 20 min after cocaine
[10] = 1 mg/kg IM, cocaine 1 mg/kg IV 120 hr post-AlbuBChE, 30 min after cocaine
[11] = 1 mg/kg IM, cocaine 1 mg/kg IV 120 hr post-AlbuBChE, 40 min after cocaine
[12] = 1 mg/kg IM, cocaine 1 mg/kg IV 120 hr post-AlbuBChE, 60 min after cocaine
[13] = 1 mg/kg IM, cocaine 1 mg/kg IV 240 hr post-AlbuBChE
[14] = 1 mg/kg IM, cocaine 1 mg/kg IV 240 hr post-AlbuBChE, 5 min after cocaine
[15] = 1 mg/kg IM, cocaine 1 mg/kg IV 240 hr post-AlbuBChE, 10 min after cocaine
[16] = 1 mg/kg IM, cocaine 1 mg/kg IV 240 hr post-AlbuBChE, 15 min after cocaine
[17] = 1 mg/kg IM, cocaine 1 mg/kg IV 240 hr post-AlbuBChE, 20 min after cocaine
[18] = 1 mg/kg IM, cocaine 1 mg/kg IV 240 hr post-AlbuBChE, 30 min after cocaine
[19] = 1 mg/kg IM, cocaine 1 mg/kg IV 240 hr post-AlbuBChE, 40 min after cocaine
[20] = 1 mg/kg IM, cocaine 1 mg/kg IV 240 hr post-AlbuBChE, 60 min after cocaine
[21] = 5 mg/kg IM, cocaine 1 mg/kg IV 2 hr post-AlbuBChE
[22] = 5 mg/kg IM, cocaine 1 mg/kg IV 2 hr post-AlbuBChE, 5 min after cocaine
[23] = 5 mg/kg IM, cocaine 1 mg/kg IV 2 hr post-AlbuBChE, 10 min after cocaine
[24] = 5 mg/kg IM, cocaine 1 mg/kg IV 2 hr post-AlbuBChE, 15 min after cocaine
[25] = 5 mg/kg IM, cocaine 1 mg/kg IV 2 hr post-AlbuBChE, 20 min after cocaine
[26] = 5 mg/kg IM, cocaine 1 mg/kg IV 2 hr post-AlbuBChE, 30 min after cocaine
[27] = 5 mg/kg IM, cocaine 1 mg/kg IV 2 hr post-AlbuBChE, 40 min after cocaine
[28] = 5 mg/kg IM, cocaine 1 mg/kg IV 2 hr post-AlbuBChE, 60 min after cocaine
[29] = 5 mg/kg IM, cocaine 1 mg/kg IV 48 hr post-AlbuBChE
[30] = 5 mg/kg IM, cocaine 1 mg/kg IV 48 hr post-AlbuBChE, 5 min after cocaine

Substance: AlbuBChE
- Ecgonine methyl ester plasma concentration (mean) [1]: 47.3 ng/mL
- Mean benzoylecgonine plasma concentration [1]: 43.7 ng/mL
- Mean cocaine plasma concentration [1]: 208 ng/mL
- Ecgonine methyl ester plasma concentration (mean) [2]: 57.3 ng/mL
- Mean benzoylecgonine plasma concentration [2]: 47.4 ng/mL
- Mean cocaine plasma concentration [2]: 162 ng/mL
- Ecgonine methyl ester plasma concentration (mean) [3]: 64.4 ng/mL
- Mean benzoylecgonine plasma concentration [3]: 46.7 ng/mL
- Mean cocaine plasma concentration [3]: 123 ng/mL
- Ecgonine methyl ester plasma concentration (mean) [4]: 59.9 ng/mL
- Mean benzoylecgonine plasma concentration [4]: 49.6 ng/mL
- Mean cocaine plasma concentration [4]: 64.8 ng/mL
- Mean benzoylecgonine AUC(0-t) [5]: 2809 ng·min/mL
- Mean cocaine AUC % Extrap [5]: 22.4%
- Mean cocaine AUC(0-t) [5]: 11526 ng·min/mL
- Mean cocaine AUC(0-∞) [5]: 14838 ng·min/mL
- Mean cocaine C0 [5]: 491 ng/mL
- Mean cocaine CI [5]: 67.4 mL/min/kg
- Mean cocaine Vss [5]: 2.687 L/kg
- Mean cocaine t½ [5]: 28.6 min
- Ecgonine methyl ester plasma concentration (mean) [6]: 42.7 ng/mL
- Mean benzoylecgonine plasma concentration [6]: 37.2 ng/mL
- Mean cocaine plasma concentration [6]: 356 ng/mL
- Ecgonine methyl ester plasma concentration (mean) [7]: 27.4 ng/mL
- Mean benzoylecgonine plasma concentration [7]: 38.9 ng/mL
- Mean cocaine plasma concentration [7]: 263 ng/mL
- Ecgonine methyl ester plasma concentration (mean) [8]: 37.8 ng/mL
- Mean benzoylecgonine plasma concentration [8]: 42.2 ng/mL
- Mean cocaine plasma concentration [8]: 233 ng/mL
- Ecgonine methyl ester plasma concentration (mean) [9]: 31.8 ng/mL
- Mean benzoylecgonine plasma concentration [9]: 40.2 ng/mL
- Mean cocaine plasma concentration [9]: 202 ng/mL
- Ecgonine methyl ester plasma concentration (mean) [10]: 104 ng/mL
- Mean benzoylecgonine plasma concentration [10]: 51.3 ng/mL
- Mean cocaine plasma concentration [10]: 161 ng/mL
- Ecgonine methyl ester plasma concentration (mean) [11]: 68.6 ng/mL
- Mean benzoylecgonine plasma concentration [11]: 50.9 ng/mL
- Mean cocaine plasma concentration [11]: 141 ng/mL
- Ecgonine methyl ester plasma concentration (mean) [12]: 76.8 ng/mL
- Mean benzoylecgonine plasma concentration [12]: 54.4 ng/mL
- Mean cocaine plasma concentration [12]: 79.7 ng/mL
- Mean benzoylecgonine AUC(0-t) [13]: 3660 ng·min/mL
- Mean cocaine AUC % Extrap [13]: 26.7%
- Mean cocaine AUC(0-t) [13]: 14364 ng·min/mL
- Mean cocaine AUC(0-∞) [13]: 19623 ng·min/mL
- Mean cocaine C0 [13]: 467 ng/mL
- Mean cocaine CI [13]: 51.1 mL/min/kg
- Mean cocaine Vss [13]: 2.288 L/kg
- Mean cocaine t½ [13]: 31.0 min
- Ecgonine methyl ester plasma concentration (mean) [14]: 92.7 ng/mL
- Mean benzoylecgonine plasma concentration [14]: 40.0 ng/mL
- Mean cocaine plasma concentration [14]: 397 ng/mL
- Ecgonine methyl ester plasma concentration (mean) [15]: 21.9 ng/mL
- Mean benzoylecgonine plasma concentration [15]: 47.2 ng/mL
- Mean cocaine plasma concentration [15]: 340 ng/mL
- Ecgonine methyl ester plasma concentration (mean) [16]: 25.9 ng/mL
- Mean benzoylecgonine plasma concentration [16]: 55.0 ng/mL
- Mean cocaine plasma concentration [16]: 300 ng/mL
- Ecgonine methyl ester plasma concentration (mean) [17]: 29.5 ng/mL
- Mean benzoylecgonine plasma concentration [17]: 56.7 ng/mL
- Mean cocaine plasma concentration [17]: 259 ng/mL
- Ecgonine methyl ester plasma concentration (mean) [18]: 41.3 ng/mL
- Mean benzoylecgonine plasma concentration [18]: 64.6 ng/mL
- Mean cocaine plasma concentration [18]: 218 ng/mL
- Ecgonine methyl ester plasma concentration (mean) [19]: 51.8 ng/mL
- Mean benzoylecgonine plasma concentration [19]: 68.3 ng/mL
- Mean cocaine plasma concentration [19]: 181 ng/mL
- Ecgonine methyl ester plasma concentration (mean) [20]: 54.3 ng/mL
- Mean benzoylecgonine plasma concentration [20]: 75.2 ng/mL
- Mean cocaine plasma concentration [20]: 117 ng/mL
- Mean benzoylecgonine AUC(0-t) [21]: 1405 ng·min/mL
- Mean cocaine AUC(0-t) [21]: 3289 ng·min/mL
- Mean cocaine C0 [21]: 271 ng/mL
- Ecgonine methyl ester plasma concentration (mean) [22]: 337 ng/mL
- Mean benzoylecgonine plasma concentration [22]: 22.3 ng/mL
- Mean cocaine plasma concentration [22]: 145 ng/mL
- Ecgonine methyl ester plasma concentration (mean) [23]: 321 ng/mL
- Mean benzoylecgonine plasma concentration [23]: 23.7 ng/mL
- Mean cocaine plasma concentration [23]: 77.9 ng/mL
- Ecgonine methyl ester plasma concentration (mean) [24]: 363 ng/mL
- Mean benzoylecgonine plasma concentration [24]: 22.0 ng/mL
- Mean cocaine plasma concentration [24]: 43.5 ng/mL
- Ecgonine methyl ester plasma concentration (mean) [25]: 331 ng/mL
- Mean benzoylecgonine plasma concentration [25]: 22.9 ng/mL
- Mean cocaine plasma concentration [25]: 12.8 ng/mL
- Ecgonine methyl ester plasma concentration (mean) [26]: 266 ng/mL
- Mean benzoylecgonine plasma concentration [26]: 31.1 ng/mL
- Mean cocaine plasma concentration [26]: 110 ng/mL
- Ecgonine methyl ester plasma concentration (mean) [27]: 308 ng/mL
- Mean benzoylecgonine plasma concentration [27]: 21.3 ng/mL
- Mean cocaine plasma concentration [27]: 4.96 ng/mL
- Ecgonine methyl ester plasma concentration (mean) [28]: 248 ng/mL
- Mean benzoylecgonine plasma concentration [28]: 20.1 ng/mL
- Mean cocaine plasma concentration [28]: 2.26 ng/mL
- Mean benzoylecgonine AUC(0-t) [29]: 1441 ng·min/mL
- Mean cocaine AUC % Extrap [29]: 3.0%
- Mean cocaine AUC(0-t) [29]: 3015 ng·min/mL
- Mean cocaine AUC(0-∞) [29]: 3110 ng·min/mL
- Mean cocaine C0 [29]: 177 ng/mL
- Mean cocaine CI [29]: 325 mL/min/kg
- Mean cocaine Vss [29]: 5.729 L/kg
- Mean cocaine t½ [29]: 11.4 min
- Ecgonine methyl ester plasma concentration (mean) [30]: 119 ng/mL
- Mean benzoylecgonine plasma concentration [30]: 20.0 ng/mL
- Mean cocaine plasma concentration [30]: 126 ng/mL
